# Experimental data as given in patent publication US20200199212A1.
# Experiments:
# [1] = molecular target: cynomolgus LPL on HEK293 cells (cynomolgus); assay: cell-based or functional assay
# [2] = molecular target: rat LPL on HEK293 cells (rat) (UniProt Q06000); assay: cell-based or functional assay
# Sequence of rat LPL on HEK293 cells (rat) (Q06000 28-474): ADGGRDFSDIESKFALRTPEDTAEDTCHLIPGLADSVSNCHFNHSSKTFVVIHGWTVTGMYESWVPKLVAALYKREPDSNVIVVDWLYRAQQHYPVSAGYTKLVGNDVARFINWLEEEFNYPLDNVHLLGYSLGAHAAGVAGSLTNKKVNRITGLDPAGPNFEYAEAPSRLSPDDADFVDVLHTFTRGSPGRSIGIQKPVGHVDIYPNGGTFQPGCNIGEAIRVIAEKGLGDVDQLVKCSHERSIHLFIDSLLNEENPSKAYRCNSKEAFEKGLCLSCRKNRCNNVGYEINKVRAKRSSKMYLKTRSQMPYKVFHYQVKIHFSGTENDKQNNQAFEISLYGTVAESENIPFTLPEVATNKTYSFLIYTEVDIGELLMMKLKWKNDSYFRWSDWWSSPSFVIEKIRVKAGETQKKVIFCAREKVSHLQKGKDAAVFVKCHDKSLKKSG
IC80 concentration (inhibition of LPL activity) [1],IC80 concentration (inhibition of LPL activity) [2],Substance
0.38 nM,,cyno ANGPTL3/8 complex (from UniProt A0A2K5UDC5 17-460)
,0.81 nM,rat ANGPTL3/8 complex (from UniProt F7FHP0 17-446)
